Laboratory results as given in patent publication US20230074436A1 (DENALI THERAPEUTICS, published 2023).

What follows are binders tested against human alpha-synuclein monomer (human, UniProt P37840 1-140) (assay: SPR (Biacore 8K), IgG captured on anti-human Fc, aSyn monomer injected;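 note: aSyn injected as a dilution series, signal corrected against a reference cell holding an irrelevant IgG, Kd from one-to-one Langmuir kinetic fitting of kon and koff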).
Protocol: Serial 3-fold dilutions of aSyn were injected at a flow rate of 30 μL/min. Each sample was analyzed using a 3-minute association and a 10-minute dissociation. After each injection, the chip was regenerated using 3 M MgCl₂. Binding response was corrected by subtracting the RU from a flow cell capturing an irrelevant IgG at similar density. A 1:1 Languir model of simultaneous fitting of kₒₙ and koff was used for kinetics analysis.

Binder | Kd [nM]
H1_1_LC2 (antibody, V domains shown) VH: EVQLVESGGGLVQPGGSLRLSCAASGFTFSKAAMYWVRQAPGKGLELVSRIRTKPNNYATYHADSVKGRFTISRDNSKNTLYLQMNSLRAEDTAVYYCTADMATGDYWGQGTLVTVSS VL: DIQMTQSPSSLSASVGDRVTITCKASQNINKNLDWYQQKPGKAPKPLIYSTNNLQTGVPSRFSGSGSGTDFTLTISSLQPEDFATYYCYQYKSAWTFGQGTKVEIK | 3.46
H3_1_LC2 (antibody, V domains shown) VH: EVQLVESGGGLVQPGGSLRLSCAASGFTFSNAAMYWVRQAPGKGLELVSRIRTKPNNYATYHADSVKGRFTISRDNSKNTLYLQMNSLRAEDTAVYYCTANMATGDYWGQGTLVTVSS VL: DIQMTQSPSSLSASVGDRVTITCKASQNINKNLDWYQQKPGKAPKPLIYSTNNLQTGVPSRFSGSGSGTDFTLTISSLQPEDFATYYCYQYKSAWTFGQGTKVEIK | 4.79
H3_4_LC2 (antibody, V domains shown) VH: EVQLVESGGGLVQPGGSLRLSCAASGFTFSNAAMYWVRQAPGKGLELVSRIRTKPNNYATYHADSVKGRFTISRDNSKNTLYLQMNSLRAEDTAVYYCSADFAKGDYWGQGTLVTVSS VL: DIQMTQSPSSLSASVGDRVTITCKASQNINKNLDWYQQKPGKAPKPLIYSTNNLQTGVPSRFSGSGSGTDFTLTISSLQPEDFATYYCYQYKSAWTFGQGTKVEIK | 4.64
H1_3_LC2 (antibody, V domains shown) VH: EVQLVESGGGLVQPGGSLRLSCAASGFTFSRAAMYWVRQAPGKGLELVSRIRTKPNNYATYHADSVKGRFTISRDNSKNTLYLQMNSLRAEDTAVYYCTADMATGDYWGQGTLVTVSS VL: DIQMTQSPSSLSASVGDRVTITCKASQNINKNLDWYQQKPGKAPKPLIYSTNNLQTGVPSRFSGSGSGTDFTLTISSLQPEDFATYYCYQYKSAWTFGQGTKVEIK | 4.04
HC2_L2_2 (antibody, V domains shown) VH: EVQLVESGGGLVQPGGSLRLSCAASGFTFSNAAMYWVRQAPGKGLELVSRIRTKPNNYATYHADSVKGRFTISRDNSKNTLYLQMNSLRAEDTAVYYCTADMATGDYWGQGTLVTVSS VL: DIQMTQSPSSLKSSVGDRVTITCKASQNINKNLDWYQQKPGKAPKPLIYRTKNLQTGVPSRFSGSGSGTDFTLTISSLQPEDFATYYCYQYKSAWTFGQGTKVEIK | 2.01
H1_4_LC2 (antibody, V domains shown) VH: EVQLVESGGGLVQPGGSLRLSCAASGFTFNKAAMYWVRQAPGKGLELVSRIRTKPNNYATYHADSVKGRFTISRDNSKNTLYLQMNSLRAEDTAVYYCTADMATGDYWGQGTLVTVSS VL: DIQMTQSPSSLSASVGDRVTITCKASQNINKNLDWYQQKPGKAPKPLIYSTNNLQTGVPSRFSGSGSGTDFTLTISSLQPEDFATYYCYQYKSAWTFGQGTKVEIK | 3.55
H3_2_LC2 (antibody, V domains shown) VH: EVQLVESGGGLVQPGGSLRLSCAASGFTFSNAAMYWVRQAPGKGLELVSRIRTKPNNYATYHADSVKGRFTISRDNSKNTLYLQMNSLRAEDTAVYYCTANMAKGDYWGQGTLVTVSS VL: DIQMTQSPSSLSASVGDRVTITCKASQNINKNLDWYQQKPGKAPKPLIYSTNNLQTGVPSRFSGSGSGTDFTLTISSLQPEDFATYYCYQYKSAWTFGQGTKVEIK | 4.92
H2_1_LC2 (antibody, V domains shown) VH: EVQLVESGGGLVQPGGSLRLSCAASGFTFSNAAMYWVRQAPGKGLELVSRIRTKPNNFATYHADSVKGRFTISRDNSKNTLYLQMNSLRAEDTAVYYCTADMATGDYWGQGTLVTVSS VL: DIQMTQSPSSLSASVGDRVTITCKASQNINKNLDWYQQKPGKAPKPLIYSTNNLQTGVPSRFSGSGSGTDFTLTISSLQPEDFATYYCYQYKSAWTFGQGTKVEIK | 6.18
HC2_L1_1 (antibody, V domains shown) VH: EVQLVESGGGLVQPGGSLRLSCAASGFTFSNAAMYWVRQAPGKGLELVSRIRTKPNNYATYHADSVKGRFTISRDNSKNTLYLQMNSLRAEDTAVYYCTADMATGDYWGQGTLVTVSS VL: DIQMTQSPSSLSASVGDRVTITCKASQNINNNLDWYQQKPGKAPKPLIYSTNNLKTGVPSRFSGSGSGTDFTLTISSLQPEDFATYYCYQYKSAWTFGQGTKVEIK | 1.2
H1_5_LC2 (antibody, V domains shown) VH: EVQLVESGGGLVQPGGSLRLSCAASGFKFSKAAMYWVRQAPGKGLELVSRIRTKPNNYATYHADSVKGRFTISRDNSKNTLYLQMNSLRAEDTAVYYCTADMATGDYWGQGTLVTVSS VL: DIQMTQSPSSLSASVGDRVTITCKASQNINKNLDWYQQKPGKAPKPLIYSTNNLQTGVPSRFSGSGSGTDFTLTISSLQPEDFATYYCYQYKSAWTFGQGTKVEIK | 4.61
H2_6_LC2 (antibody, V domains shown) VH: EVQLVESGGGLVQPGGSLRLSCAASGFTFSNAAMYWVRQAPGKGLELVSRIRTKPKNYATYHADSVKGRFTISRDNSKNTLYLQMNSLRAEDTAVYYCTADMATGDYWGQGTLVTVSS VL: DIQMTQSPSSLSASVGDRVTITCKASQNINKNLDWYQQKPGKAPKPLIYSTNNLQTGVPSRFSGSGSGTDFTLTISSLQPEDFATYYCYQYKSAWTFGQGTKVEIK | 7.75
HC2_L1_2 (antibody, V domains shown) VH: EVQLVESGGGLVQPGGSLRLSCAASGFTFSNAAMYWVRQAPGKGLELVSRIRTKPNNYATYHADSVKGRFTISRDNSKNTLYLQMNSLRAEDTAVYYCTADMATGDYWGQGTLVTVSS VL: DIQMTQSPSSLSASVGDRVTITCKASQIINQILDWYQQKPGKAPKPLIYSTNNLQTGVPSRFSGSGSGTDFTLTISSLQPEDFATYYCYQYKSAWTFGQGTKVEIK | 2.45
HC2_L2_1 (antibody, V domains shown) VH: EVQLVESGGGLVQPGGSLRLSCAASGFTFSNAAMYWVRQAPGKGLELVSRIRTKPNNYATYHADSVKGRFTISRDNSKNTLYLQMNSLRAEDTAVYYCTADMATGDYWGQGTLVTVSS VL: DIQMTQSPSSLSASVGDRVTITCKASQNINKNLDWYQQKPGKAPKPLIYSTNKLKTGVPSRFSGSGSGTDFTLTISSLQPEDFATYYCYQYKSAWTFGQGTKVEIK | 1.78
H3_6_LC2 (antibody, V domains shown) VH: EVQLVESGGGLVQPGGSLRLSCAASGFTFSNAAMYWVRQAPGKGLELVSRIRTKPNNYATYHADSVKGRFTISRDNSKNTLYLQMNSLRAEDTAVYYCTANMRKGDYWGQGTLVTVSS VL: DIQMTQSPSSLSASVGDRVTITCKASQNINKNLDWYQQKPGKAPKPLIYSTNNLQTGVPSRFSGSGSGTDFTLTISSLQPEDFATYYCYQYKSAWTFGQGTKVEIK | 10.3
H2_5_LC2 (antibody, V domains shown) VH: EVQLVESGGGLVQPGGSLRLSCAASGFTFSNAAMYWVRQAPGKGLELVSRIRTEPNNYATYHADSVKGRFTISRDNSKNTLYLQMNSLRAEDTAVYYCTADMATGDYWGQGTLVTVSS VL: DIQMTQSPSSLSASVGDRVTITCKASQNINKNLDWYQQKPGKAPKPLIYSTNNLQTGVPSRFSGSGSGTDFTLTISSLQPEDFATYYCYQYKSAWTFGQGTKVEIK | 5.5
H2_4_LC2 (antibody, V domains shown) VH: EVQLVESGGGLVQPGGSLRLSCAASGFTFSNAAMYWVRQAPGKGLELVSRIRTKRNNYATYHADSVKGRFTISRDNSKNTLYLQMNSLRAEDTAVYYCTADMATGDYWGQGTLVTVSS VL: DIQMTQSPSSLSASVGDRVTITCKASQNINKNLDWYQQKPGKAPKPLIYSTNNLQTGVPSRFSGSGSGTDFTLTISSLQPEDFATYYCYQYKSAWTFGQGTKVEIK | 8.35
H2_3_LC2 (antibody, V domains shown) VH: EVQLVESGGGLVQPGGSLRLSCAASGFTFSNAAMYWVRQAPGKGLELVSRIRTERNNYATYHADSVKGRFTISRDNSKNTLYLQMNSLRAEDTAVYYCTADMATGDYWGQGTLVTVSS VL: DIQMTQSPSSLSASVGDRVTITCKASQNINKNLDWYQQKPGKAPKPLIYSTNNLQTGVPSRFSGSGSGTDFTLTISSLQPEDFATYYCYQYKSAWTFGQGTKVEIK | 4.76
H1_6_LC2 (antibody, V domains shown) VH: EVQLVESGGGLVQPGGSLRLSCAASGFNFSKAAMYWVRQAPGKGLELVSRIRTKPNNYATYHADSVKGRFTISRDNSKNTLYLQMNSLRAEDTAVYYCTADMATGDYWGQGTLVTVSS VL: DIQMTQSPSSLSASVGDRVTITCKASQNINKNLDWYQQKPGKAPKPLIYSTNNLQTGVPSRFSGSGSGTDFTLTISSLQPEDFATYYCYQYKSAWTFGQGTKVEIK | 3.91
H2_2_LC2 (antibody, V domains shown) VH: EVQLVESGGGLVQPGGSLRLSCAASGFTFSNAAMYWVRQAPGKGLELVSRIRTQRNNYATYHADSVKGRFTISRDNSKNTLYLQMNSLRAEDTAVYYCTADMATGDYWGQGTLVTVSS VL: DIQMTQSPSSLSASVGDRVTITCKASQNINKNLDWYQQKPGKAPKPLIYSTNNLQTGVPSRFSGSGSGTDFTLTISSLQPEDFATYYCYQYKSAWTFGQGTKVEIK | 5.93
H3_5_LC2 (antibody, V domains shown) VH: EVQLVESGGGLVQPGGSLRLSCAASGFTFSNAAMYWVRQAPGKGLELVSRIRTKPNNYATYHADSVKGRFTISRDNSKNTLYLQMNSLRAEDTAVYYCTADFARGDYWGQGTLVTVSS VL: DIQMTQSPSSLSASVGDRVTITCKASQNINKNLDWYQQKPGKAPKPLIYSTNNLQTGVPSRFSGSGSGTDFTLTISSLQPEDFATYYCYQYKSAWTFGQGTKVEIK | 3.84
H1_2_LC2 (antibody, V domains shown) VH: EVQLVESGGGLVQPGGSLRLSCAASGFRFSKAAMYWVRQAPGKGLELVSRIRTKPNNYATYHADSVKGRFTISRDNSKNTLYLQMNSLRAEDTAVYYCTADMATGDYWGQGTLVTVSS VL: DIQMTQSPSSLSASVGDRVTITCKASQNINKNLDWYQQKPGKAPKPLIYSTNNLQTGVPSRFSGSGSGTDFTLTISSLQPEDFATYYCYQYKSAWTFGQGTKVEIK | 3.53
H3_3_LC2 (antibody, V domains shown) VH: EVQLVESGGGLVQPGGSLRLSCAASGFTFSNAAMYWVRQAPGKGLELVSRIRTKPNNYATYHADSVKGRFTISRDNSKNTLYLQMNSLRAEDTAVYYCAAAMARGDYWGQGTLVTVSS VL: DIQMTQSPSSLSASVGDRVTITCKASQNINKNLDWYQQKPGKAPKPLIYSTNNLQTGVPSRFSGSGSGTDFTLTISSLQPEDFATYYCYQYKSAWTFGQGTKVEIK | 5.3
